Assay results reported in patent US20250215081A1.

biological target: CD3-Fc; assay: SPR (Biacore T200, 25 C), CD3-Fc captured on anti-hFc CM5 chip, antibody as analyte, 1:1 model

Kd | Molecule
16 nM | anti-CD3 antibody CD3hi (mAb) (antibody, V domains shown) VH: EVQLVESGGGLVQPGGSLKLSCAASGFTFNTYAMNWVRQASGKGLEWVGRIRSKYNNYATYYADSVKDRFTISRDDSKSTLYLQMNSLKTEDTAVYYCVRHGNFGNSYVSWFAYWGQGTLVTVSS VL: QAVVTQEPSLTVSPGGTVTLTCRSSTGAVTTSNYANWVQQKPGQAPRGLIGGTNKRAPWTPARFSGSLLGDKAALTLSGAQPEDEAEYFCALWYSNLWVFGGGTKLTVL
48 nM | anti-CD3 antibody CD3lo (mAb) (antibody, V domains shown) VH: EVQLVESGGGLVQPGGSLKLSCAASGFTFNTYAMNWVRQASGKGLEWVGRIRSKYNNYATYYADSVKDRFTISRDDSKSTAYLQMNSLKTEDTAVYYCVRHGNFGNSYVSWFAYWGQGTLVTVSS VL: QAVVTQEPSLTVSPGGTVTLTCRSSTGAVTTSNYANWVQQKPGQAPRGLIGGTNKRAPWTPARFSGSLLGDKAALTLSGAQPEDEAEYFCALWYSNLWVFGGGTKLTVL
30 nM | anti-CD3 antibody CD3med (mAb) (antibody, V domains shown) VH: EVQLVESGGGLVQPGGSLKLSCAASGFTFNTYAMNWVRQASGKGLEWVGRIRSKYNNYATYYADSVKDRFTISRDDSKNTAYLQMNSLKTEDTAVYYCVRHGNFGNSYVSWFAHWGQGTLVTVSS VL: QAVVTQEPSLTVSPGGTVTLTCGSSTGAVTSSNYANWVQQKPGQAPRGLIGGTNKRAPWTPARFSGSLLGGKAALTLSGAQPEDEAEYYCALWYSNLWVFGGGTKLTVL

biological target: human Fc gamma receptor 1A (human) (UniProt P12314); assay: SPR (Biacore T200), antibody amine-coupled on CM5 (~950 RU), FcγR1A as analyte
Sequence of UniProt P12314 (P12314 16-288 limits assumed): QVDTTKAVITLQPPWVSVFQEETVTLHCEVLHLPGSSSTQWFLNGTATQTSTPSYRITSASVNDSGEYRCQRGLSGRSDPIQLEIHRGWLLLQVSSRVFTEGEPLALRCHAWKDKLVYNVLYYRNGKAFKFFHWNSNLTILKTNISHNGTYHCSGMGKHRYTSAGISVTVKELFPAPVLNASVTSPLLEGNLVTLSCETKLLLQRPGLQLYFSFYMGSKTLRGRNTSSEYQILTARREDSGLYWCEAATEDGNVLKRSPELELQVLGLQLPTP

Molecule | Maximum response at 100 nM hFcgammaRIA (RU)
Anti-CD3 GADAPA-IgG1 (G237A/D265A/P329A) (antibody) | 16 RU
Anti-CD3 DAPASK-IgG1 (D265A/P329A/S267K) (antibody) | 13 RU
Anti-CD3 LALASKPA-IgG1 (L234A/L235A/S267K/P329A) (antibody) | 9 RU
Anti-CD3 LALAGA-IgG1 (L234A/L235A/G237A) (antibody) | 15 RU
Anti-CD3 DANAPA-IgG1 (D265A/N297A/P329A) (antibody) | 11 RU

Continued, values first:

Maximum response at 100 nM hFcgammaRIA (RU) | Molecule
10 RU | Anti-CD3 GADAPASK-IgG1 (G237A/D265A/P329A/S267K) (antibody)
18 RU | Anti-CD3 LALAPG-IgG1 (L234A/L235A/P329G) (antibody)
